# Reference: patent publication US20210395344A1
# B1: 1-5 (antibody, V domains shown)
# VH: EVQLLESGGGLVQPGGSLRLSCAASGFTFSSQAMSWVRQAPGKGLEWVSAISGSGGGTYYADSVKGRFTISRDNSKNTLYLQMNSLRAEDTAVYYCAKDRRFGEFDPWGQGTLVTVSS
# VL: QSALTQPASVSGSPGQSITISCTGTSSGVGSYNLVSWYQQHPGKAPKLMIYEASKRPSGVSNRFSGSKSGNTASLTISGLQAEDEADYYCCSYAGSYTFAVFGGGTKLTVL
# Experiments:
# [1] = target: SARS-CoV-2 S protein trimer (SARS-CoV-2), P0DTC2; assay: column DB/S-T (format not explained); conditions: remark: other sources report otherwise
# [2] = target: COVID S1 RBD Fc fusion (Antigen 1) (SARS-CoV-2), P0DTC2; assay: phage ELISA; conditions: remark: other sources report otherwise
binder,measurement,setting,value
B1,Kd,[1],1160 nM
same,ELISA fold over background (fold over background),[2],1.6
